Laboratory results from patent US20140294731A1 (AC IMMUNE S A, published 2014).
Where no end group is shown, it is not given here. [ ]: non-standard residue; d: D form. The star is where a group is joined. Biotin = O=C1N[C@H]2[C@H](CS[C@H]2CCCCC(=O)*)N1; pS = N[C@@H](COP(=O)(O)O)C(=O)O; LC linker = not defined here

T1: T3.30: Biotin-LC linker-GVYKS[PO3H2]PVVSGDTS[PO3H2]PRHL-NH2 (reading uncertain; also: printed as Biotin-LC linker-GVYKS[PO3H2]PVVSGDTS[PO3H2]PRHL-NH2)
T1 construct: Human Tau 393-408 with an added N-terminal Gly; two lots used: MI89P9-P12-2 (64% pure) and MI89P9-P12-3 (87% pure); also called Phospho-tau peptide; phosphopeptide T3.30
T1 peptide: {Biotin-LC linker}-GVYK[pS]PVVSGDT[pS]PRHL-NH2

T2: non-phosphorylated Tau peptide T3.6: Tau393-408 (human)
T2 construct: Synthetic peptide (PolyPeptide Laboratories); also called non-phospho counterpart of the antigenic peptide; non-phospho-peptide
T2 peptide: VYKSPVVSGDTSPRHL

T3: pTau peptide T3.5: Tau393-408 [pS396/pS404] (human)
T3 construct: Synthetic peptide (PolyPeptide Laboratories), coated on ELISA plates at 10 µg/mL; also called Tau p-peptide; T3: Tau 393-408 [pS396, pS404]
T3 peptide: VYK[pS]PVVSGDT[pS]PRHL

B1: ACI-35-1D2-Ab1 (antibody, IgG2a, V domains shown)
VH: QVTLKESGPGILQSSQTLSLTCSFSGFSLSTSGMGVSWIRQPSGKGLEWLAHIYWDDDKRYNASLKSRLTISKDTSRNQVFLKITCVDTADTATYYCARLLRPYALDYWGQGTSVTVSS
VL: NILMTQSPSSLAVSAGEKVTMSCKSSQSVLYSSNQKNYLAWYQQKPGQSPKLLIYWASTRESGVPDRFTGSGSGTDFTLTISSVQAEDLAVYYCLQYLSSLTFGAGTKLELK
notes: Biotinylated (-BT) in the AlphaLISA; also called ACl-35-1D2-Ab1; hybridoma A6-1D2-12
B2: ACI-35-4A6-Ab1 (antibody, IgG2b, V domains shown)
VH: QVQLQQPGAELLKPGASVKLSCKASGYTFTSYWMHWVKQRPGRGLEWIGRIDPNSDRTKYNEKFKRKATLTVDKSSSTAYMQLSSLTSEDSAVYYCARDDYAWFAYWGQGTLVTVSA
VL: DVLMTQTPLSLPVSLGDQASISCRSSQSIVHSNGNTYLEWYLQKPGQSPKLLIYKLSNRFSGVPDRFSGSGSGTDFTLKISRVEAEDLGVYYCFQGSHVPPTFGGGTKLEIK
notes: also called ACl-35-4A6-Ab1; hybridoma A4-4A6-18
B3: ACI-35-2G5-Ab1 (antibody, IgG2a, V domains shown)
VH: QVQLKQSGAELVRPGASVKLSCKASGYTFTDYYINWVKQRPGQGLEWIARIYPGRGNIYYNEKFKGKATLTAEKSSSTAYMQLSSLTSEDSAVYFCARFWDVTYWGQGTLVTVSA
VL: DVLMTQTPLSLPVSLGDQASISCRSSQSIVHSNGNTYLEWFLQKPGQSPKLLIYKVSNRFSGVPDRFSGSGSGTDFTLKISRVEAEDLGVYYCFQGSHVPYTFGGGTKLEIK
notes: also called ACl-35-2G5-Ab1; ACl-35-2G5-AB1
B4: ACI-35-2A1-Ab1 (antibody, IgG2b, V domains shown)
VH: EVQLQQSGPELVKPGASVKISCKASGYTFTDYYMNWVKQSHGKSLEWIGDINPNNGGTSYNQKFKGKATLTVDKSSSTAYMELRSLTSEDSAVYYCVREGRFAYWGHGTLVTVSA
VL: DIVMTQAAPSVPVTPGESVSISCRSSKSLLHSNGNTYLYWFLQRPGQSPQLLIHRMSNLASGVPDRFSGSGSGTAFTLRISRVEAEDVGVYYCMQHLKSPYTFGGGTKLEIK
notes: Biotinylated (-BT) in the AlphaLISA and as detector in the Setup 1 ELISA; also called ACl-35-2A1-Ab1; hybridoma A4-2A1-18
B5: ACI-35-2G5-Ab2 (antibody, IgG2b, V domains shown)
VH: EVQLQQSGPELVKPGASVKISCKASGFTFTDYYMNWVKQSHGKSLEWIGDINPNNGGTSYHQKFKGKATLTVDKSSSTAYMELRSLTSEDSAVYYCVREGRFAYWGQGTLVTVSA
VL: DIVMTQSQKFMSTSVGDRVSVTCKASQNVGTNVAWYQQKPGQSPKALIYSASYRYSGVPDRFTGSGSGTDFTLTISNVQSEDLAEYFCQQYNSYPYTFGGGTKLEIK
notes: also called ACl-35-2G5-Ab2; ACl-35-2G5-AB2
B6: ACI-35-2G5-Ab3 (antibody, IgG2b, V domains shown)
VH: EVQLQQSGPELVKPGASVKISCKASGFTFTDYYMNWVKQSHGKSLEWIGDINPNNGGTSYHQKFKGKATLTVDKSSSTAYMELRSLTSEDSAVYYCVREGRFAYWGQGTLVTVSA
VL: DIVMTQSQKFMSTSVGDRVSVTCKASQNVGTNVAWYQQKPGQSPKALIYSASYRYSGVPDRFTGSGSGTDFTLTISNVQSEDLAEYFCQQYNSYPYTFGGGTKLEIK
notes: Biotinylated (-BT) in the AlphaLISA and as detector in the Setup 1 ELISA; also called ACl-35-2G5-Ab3; ACl-35-2G5-AB3
B7: ACI-35-4A6-Ab2 (antibody, V domains shown)
VH: EVQLQQSGPELVKPGASVKISCKASGYTFTDYYMNWVKQSHGKSLEWIGDINPNNGGTSYNQKFKGKATLTVDKSSSTAYMELRSLTSEDSAVYYCVREGRFAYWGHGTLVTVSA
VL: DIVMTQAAPSVPVTPGESVSISCRSSKSLLHSNGNTYLYWFLQRPGQSPQLLIYRMSNLASGVPDRFSGSGSGTAFTLRISRVEAEDVGVYYCMQHLKSPYTFGGGTKLEIK
notes: also called ACl-35-4A6-Ab2; hybridoma A4-4A6-48

What was measured:
[1] = biological target: T1, T3.30: Biotin-LC …; test: SPR (Biacore X), T3.30 on streptavidin chip, antibody injected, 1:1 Langmuir fit; peptide lot 64% pure
Method: (§1) All SPR experiments were carried out on a Biacore X instrument (GE Healthcare). Sensor chip SA (Streptavidin derivatized carboxymethyl dextran) was purchased from GE Healthcare. Running buffer was PBS (Dulbecco's PBS, Sigma D8537). Non-covalently bound Streptavidin was firstly removed from the sensor surface by injecting 8 pulses (each ˜1 μL) of 16 mM NaOH (aq). Phospho-tau peptide was then solubilized in PBS to give a final peptide concentration of 1 μM and then injected (35 μL) over flow cell (fc) 2 of the sensor chip at 5 μl/min. After coupling, a final immobilization level of 130 RUs was obtained. To study the binding of the antibodies to the chip surface, several concentrations of antibodies were prepared by serial 2-fold dilutions with running buffer. The injections were performed over both fc 1 and 2 at a flow rate of 50 μL/min for 120 s. Flow cell 1 was not derivatized and responses of fc 1 were subtracted from fc 2 to correct for instrument noise and bulk refractive changes. After each injection, the surfaces were washed immediately with running buffer for 100s. To remove any remaining bound antibody from the chip, surface regeneration was performed by injecting 1 μL of 10 mM Glycine-HCl pH 1.7. Kinetic analyses were performed using algorithms for numerical integration and global analysis using BIAevaluation 3.0. The sensograms obtained for injections of antibody at different concentrations were overlaid and the baselines adjusted to zero. For curve fitting, all data were fit simultaneously to a 1:1 homogeneous (Langmuir) model.

[2] = biological target: T1, T3.30: Biotin-LC …; test: SPR (Biacore X), T3.30 on streptavidin chip, antibody injected, 1:1 Langmuir fit; peptide lot 87% pure
Method: as §1

[3] = biological target: T4, full-length (441 aa) Tau protein (SignalChem) (human, UniProt P10636 1-758); test: ELISA, plate-coated protein; grade (+ Good binding)
T4 construct: Bought recombinant protein; also called Full-length Tau; non-phospho full-length Tau protein
T4 sequence (P10636 other isoform, or with tags, fused parts or gaps limits assumed): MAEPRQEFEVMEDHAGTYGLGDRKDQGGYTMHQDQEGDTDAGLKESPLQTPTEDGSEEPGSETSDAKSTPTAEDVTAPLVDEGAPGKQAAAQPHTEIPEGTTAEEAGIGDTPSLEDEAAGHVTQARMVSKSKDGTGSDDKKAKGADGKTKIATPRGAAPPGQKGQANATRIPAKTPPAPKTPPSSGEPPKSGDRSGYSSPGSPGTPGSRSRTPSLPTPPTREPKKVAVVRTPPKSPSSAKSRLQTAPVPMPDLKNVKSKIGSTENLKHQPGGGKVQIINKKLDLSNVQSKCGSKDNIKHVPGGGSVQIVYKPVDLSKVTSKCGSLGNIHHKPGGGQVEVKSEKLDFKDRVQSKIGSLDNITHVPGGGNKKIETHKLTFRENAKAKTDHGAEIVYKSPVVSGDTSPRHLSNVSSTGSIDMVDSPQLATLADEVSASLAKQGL

[4] = biological target: T5, phosphorylated full-length (441 aa) Tau protein (human, UniProt P10636 1-758, phosphorylated; the sites are not stated (preparation cited as Vandebroek et al., 2005)); test: ELISA, plate-coated protein
T5 construct: Full-length 441 aa Tau; Coated at 1 µg/mL; also called pTau protein; Full-length pTau
T5 sequence (P10636 other isoform, or with tags, fused parts or gaps limits assumed): as above

[5] = biological target: T4, full-length (441 aa) Tau protein …; test: ELISA, plate-coated protein
[6] = biological target: T2, non-phosphorylated Tau peptide T3.6: …; test: hybridoma supernatant ELISA screen (conclusion of Example 1)
Method: (§2) Hybridomas ELISA screen was performed on pTau peptide (ACl-35, T3.5: Tau393-408[pS396/pS404; PolyPeptide Laboratories, Hillerød, Denmark), the corresponding non-phosphorylated Tau peptide (T3.6: Tau393-408, PolyPeptide Laboratories), phosphorylated full-length (441aa) Tau protein (pTau protein, Vandebroek et al., 2005) and full-length (441aa) Tau protein (Tau protein, SignalChem, Richmond, Canada). Finally Bovine Serum Albumin (BSA) was used as negative control.
(§3) Plates were coated with 10 μg/ml of corresponding Tau peptide and 1 μg/ml of corresponding Tau protein overnight at 4° C. After washing each well with PBS-0.05% Tween 20 and blocking with 1% BSA in PBS-0.05% Tween 20, undiluted hybridoma supernatant or medium negative control were added to the plates and incubated at 37° C. for 2 hours. After washing plates were incubated with an alkaline phosphatase (AP)-conjugated anti-mouse IgG total antibody (Jackson Laboratories, Baltimore, Pa., USA) for 2 hours at 37° C. After washing plates were incubated with pNPP (para-nitro-phenyl-phosphate), the phosphatase substrate for AP, and read at 405 nm using an ELISA plate reader. Results are expressed as O.D. (Optical Density).

[7] = biological target: T3, pTau peptide T3.5: Tau393-408 …; test: as above
Method: as §2, §3

Binder | Kd [1] [nM] | koff [1] [s⁻¹] | kon [1] [M⁻¹ s⁻¹] | Kd [2] [nM] | koff [2] [s⁻¹] | kon [2] [M⁻¹ s⁻¹] | binding result [3] | binding result [4] | binding result [5] | binding result [6] | binding result [7]
B1 | ≤ 6 | 9.3e-06 | 1600 | 82 | 0.0018 | 22000 | – | – | – | – | –
B2 | 16 | 0.0031 | 200000 | 15 | 0.0017 | 110000 | binds | – | – | – | –
B3 | 10 | 0.0053 | 480000 | 70 | 0.0022 | 32000 | – | no binding (tested: up to 20 µg/mL antibody) | no binding (tested: up to 20 µg/mL antibody) | – | –
B4 | – | – | – | 38 | 0.001 | 27000 | – | – | – | – | –
B5 | – | – | – | 10 | 0.00023 | 24000 | – | – | – | – | –
B6 | – | – | – | 2 | 3.8e-05 | 17000 | – | – | – | – | –
B7 | – | – | – | – | – | – | – | – | – | binds | binds
